The numbers were not newly measured in PMC9008539, which cites them from elsewhere.

In this series the target is PfRh5 (Plasmodium falciparum) (UniProt Q8IFM5).
Sequence of PfRh5 (Plasmodium falciparum) (Q8IFM5 25-526): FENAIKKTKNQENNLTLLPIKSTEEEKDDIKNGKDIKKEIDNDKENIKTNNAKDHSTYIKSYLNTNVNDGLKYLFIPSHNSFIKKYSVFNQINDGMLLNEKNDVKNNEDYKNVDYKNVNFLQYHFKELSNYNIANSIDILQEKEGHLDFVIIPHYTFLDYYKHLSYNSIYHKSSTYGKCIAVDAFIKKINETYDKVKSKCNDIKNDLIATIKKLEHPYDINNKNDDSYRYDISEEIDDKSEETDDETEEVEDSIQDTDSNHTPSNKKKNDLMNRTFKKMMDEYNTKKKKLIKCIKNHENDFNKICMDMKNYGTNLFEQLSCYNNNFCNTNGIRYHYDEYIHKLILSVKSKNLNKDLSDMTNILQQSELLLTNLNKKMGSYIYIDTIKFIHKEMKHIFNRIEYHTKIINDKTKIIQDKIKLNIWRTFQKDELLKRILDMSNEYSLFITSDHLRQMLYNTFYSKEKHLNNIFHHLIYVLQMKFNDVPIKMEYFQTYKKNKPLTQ

PfRipr (from UniProt O97302): the equilibrium dissociation constant (Kd) is 480 pM.
